These results are taken from PMC8606595, “Chimeric Antigen Receptor T Cells With Modified Interleukin-13 Preferentially Recognize IL13Rα2 and Suppress Malignant Glioma: A Preclinical Study” (Frontiers in Immunology, 2021).

In the experiment the target is Human IL13Rα2 (human, UniProt Q14627 27-380). The experiment is described as follows: SPR; Biacore T200; human IL13Rα1 (2,800 RU) or IL13Rα2 (3,100 RU) amine-coupled to CM5 chips in 10 mM sodium acetate pH 4.5; IL13-Fc proteins injected in twofold serial dilutions at constant flow (30 ml/min as printed); association 180 s, dissociation 600 s; regeneration 10 mM glycine pH 2.0; 1:1 fitting model. The following applies: both partners purified. (In SPR one partner is held on a chip, and binding of the other changes the refractive index at the surface.)
Human IL13Rα2, sequence (Q14627 27-380): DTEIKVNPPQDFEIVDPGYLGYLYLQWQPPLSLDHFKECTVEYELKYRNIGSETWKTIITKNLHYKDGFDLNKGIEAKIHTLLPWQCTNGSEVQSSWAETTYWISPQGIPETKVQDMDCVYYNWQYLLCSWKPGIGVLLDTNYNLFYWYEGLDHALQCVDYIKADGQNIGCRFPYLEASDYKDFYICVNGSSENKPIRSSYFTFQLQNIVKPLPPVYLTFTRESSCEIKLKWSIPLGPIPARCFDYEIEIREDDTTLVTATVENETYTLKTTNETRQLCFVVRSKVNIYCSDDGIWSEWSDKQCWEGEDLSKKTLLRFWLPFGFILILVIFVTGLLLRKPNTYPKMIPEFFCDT

B1: YYB-103 IL13 (modified IL13.E13K.R66D.S69D.R109K, antigen binding domain of YYB-103) fused with human Fc (Fc fusion)
chain: SPGPVPPSTALRKLIEELVNITQNQKAPLCNGSMVWSINLTAGMYCAALESLINVSGCSAIEKTQDMLDGFCPHKVSAGQFSSLHVRDTKIEVAQFVKDLLLHLKKLFKEGQFN
modifications: Fused to human Fc (carrier left out; probably dimeric through Fc). Numbering offset +32 is the only one that fits E13, R66, S69 and R109 together. / Amine-coupled to CM5 chip; extracellular domain …
Molecule B1 had a Kd of 7.4 nM, a koff of 1.26e-05 s⁻¹ and a kon of 1670 M⁻¹ s⁻¹.

The Kd is a measure of binding affinity in units of concentration. A lower Kd goes with a tighter complex. Broadly, the koff is the rate constant with which the complex falls apart. Read a low koff as slow dissociation. Usually kon stands for the second-order rate constant of association. Read a low kon as slower complex formation.
